Test results published in patent US8735553 (BEIGENE SWITZERLAND, dated 2014).
Substitutions are numbered along the chain they refer to. Read-outs that look alike come from different tables or passages of the source.

Legend:
[1] = target: P3Z chimeric PD-1 receptor (human); assay: cell-based or functional assay
[2] = target: P3Z chimeric PD-1 receptor (human); assay: cell-based or functional assay; remark: listed apart in the source
[3] = target: P3Z chimeric PD-1 receptor (human); assay: cell-based or functional assay; remark: listed apart in the source
[4] = target: T1, human PD-1 expressed on cells (human, UniProt Q15116 25-288); assay: cell-based or functional assay
[5] = target: T1, human PD-1 expressed on cells; assay: cell-based or functional assay; remark: listed apart in the source
[6] = target: T1, human PD-1 expressed on cells; assay: cell-based or functional assay; remark: listed apart in the source
[7] = target: T1, human PD-1 expressed on cells; assay: cell-based or functional assay; remark: listed apart in the source
[8] = target: T1, human PD-1 expressed on cells; assay: cell-based or functional assay; remark: listed apart in the source
[9] = target: T1, human PD-1 expressed on cells; assay: FACS on PD-1-expressing cells, goat anti-mouse IgG detection
[10] = target: T1, human PD-1 expressed on cells; assay: FACS on HuT78/PD-1 cells, MFI against Ab concentration (unit taken from the x axis, µg/ml)
Protocol: To block human Fc receptors, cells were pre-incubated with human IgG (20 μg/ml) (Cat. No. H11296, LifeHolder, USA and Shanghai, China).
Dose-dependent reaction curve of murine mAbs binding to human PD-1 expressed on live cells by FACS analyses. […] MFI stands for mean fluorescence intensity. HuT78/PD-1 cells were suspended in 96-well plate at 5 ×10^4 cells per well for FACS.

[11] = target: T1, human PD-1 expressed on cells; assay: FACS on PD-1-expressing cells
PD-1-EC/Fc = target: T2, PD-1-EC/Fc (human, UniProt Q15116 21-168); assay: SPR (BIAcore T-200), mAb captured on anti-mouse Fc chip, PD-1/Fc injected
T2 construct: AA 1-168 includes the signal peptide; Made in 293-F cells; also called PD-1/Fc
Protocol: Anti-mouse Fc CM5 biosensor chip (GE Healthcare) was generated using a standard primary amine coupling protocol. […] Association rates (K_a or $kon$) and dissociation rates (K_d or $koff$) were calculated using the one-to-one Langmuir binding model (BIA Evaluation Software, GE Life Sciences). The equilibrium dissociation constant (K_D) was calculated as the ratio $koff/kon$.

[12] = target: P3Z chimeric PD-1 receptor (human); assay: cell-based or functional assay; remark: listed apart in the source
[13] = target: T1, human PD-1 expressed on cells; assay: cell-based or functional assay; remark: listed apart in the source
[14] = target: T1, human PD-1 expressed on cells; assay: FACS on PD-1-expressing cells, goat anti-human IgG detection
human FcγRI [15] = target: T3, human FcγRI (human, UniProt P12314 16-374); assay: flow cytometry, FcγR+ HEK293 cells
T3 construct: whole, on cells; also called FcγR1
Protocol: (§1) Binding of various IgG4 mutants to FcγRs was determined by flow cytometry. In brief, a series of HEK293 transfectants expressing human FcγRs were established. These transfectants expressed FcγRI, FcγRIIA, FcγRIIB or FcγRIIIA Multi-subunit FcγRs (i.e., FcγR1 and FcγRIIIA) were co-expressed with FcRγ. Polymorphic variants (i.e., FcγRIIA H131 and R131, FcγRIIIA F158 and V158) were also included.

human FcγRIIIA (F158) [16] = target: T4, human FcγRIIIA (F158) (human, UniProt P08637 17-254); assay: flow cytometry, FcγR+ HEK293 cells
T4 construct: whole, on cells
Protocol: as §1

human FcγRIIA (H131) = target: T5, human FcγRIIA (H131) (human, UniProt P12318 34-317); assay: flow cytometry, FcγR+ HEK293 cells
T5 construct: whole, on cells
T5 sequence (looked up): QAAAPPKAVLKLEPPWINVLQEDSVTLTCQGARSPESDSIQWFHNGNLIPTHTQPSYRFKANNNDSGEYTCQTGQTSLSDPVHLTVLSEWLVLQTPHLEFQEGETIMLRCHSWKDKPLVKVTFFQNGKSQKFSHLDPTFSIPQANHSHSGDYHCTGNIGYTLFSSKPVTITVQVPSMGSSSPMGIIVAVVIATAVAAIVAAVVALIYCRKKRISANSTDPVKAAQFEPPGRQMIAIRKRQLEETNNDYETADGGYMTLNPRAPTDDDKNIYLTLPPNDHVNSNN
Protocol: as §1

human FcγRIIA (R131) = target: T6, human FcγRIIA (R131) (human, UniProt P12318 34-317); assay: flow cytometry, FcγR+ HEK293 cells
T6 construct: whole, on cells
T6 sequence (looked up): T5 sequence (looked up) with H134R
Protocol: as §1

human FcγRIIIA (F158) [17] = target: T4, human FcγRIIIA (F158); assay: flow cytometry, FcγR+ HEK293 cells; remark: listed apart in the source
Protocol: as §1

human FcγRIIIA (V158) = target: T7, human FcγRIIIA (V158) (human, UniProt P08637 17-254); assay: flow cytometry, FcγR+ HEK293 cells
T7 construct: whole, on cells; also called CD16 (V158 allele)
Protocol: as §1

human FcγRI [18] = target: T3, human FcγRI; assay: flow cytometry, FcγR+ HEK293 cells; remark: listed apart in the source
Protocol: as §1

[19] = target: T1, human PD-1 expressed on cells; assay: FACS on PD-1-expressing cells; remark: listed apart in the source

T3 sequence (P12314 16-374): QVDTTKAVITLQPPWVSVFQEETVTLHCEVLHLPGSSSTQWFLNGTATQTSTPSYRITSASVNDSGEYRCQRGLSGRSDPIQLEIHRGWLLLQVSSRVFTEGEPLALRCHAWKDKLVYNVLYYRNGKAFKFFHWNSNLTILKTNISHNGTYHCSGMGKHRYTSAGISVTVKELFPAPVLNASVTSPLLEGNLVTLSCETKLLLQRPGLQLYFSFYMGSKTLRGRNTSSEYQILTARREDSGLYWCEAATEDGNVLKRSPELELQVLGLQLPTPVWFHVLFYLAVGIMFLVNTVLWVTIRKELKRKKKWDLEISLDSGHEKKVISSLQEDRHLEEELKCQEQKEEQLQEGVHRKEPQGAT
T2 sequence (Q15116 21-168 limits assumed): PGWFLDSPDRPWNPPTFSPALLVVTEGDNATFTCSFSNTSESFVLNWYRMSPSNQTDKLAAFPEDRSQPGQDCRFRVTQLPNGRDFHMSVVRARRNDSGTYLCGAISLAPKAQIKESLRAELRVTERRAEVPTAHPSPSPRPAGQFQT
T1 sequence (Q15116 25-288): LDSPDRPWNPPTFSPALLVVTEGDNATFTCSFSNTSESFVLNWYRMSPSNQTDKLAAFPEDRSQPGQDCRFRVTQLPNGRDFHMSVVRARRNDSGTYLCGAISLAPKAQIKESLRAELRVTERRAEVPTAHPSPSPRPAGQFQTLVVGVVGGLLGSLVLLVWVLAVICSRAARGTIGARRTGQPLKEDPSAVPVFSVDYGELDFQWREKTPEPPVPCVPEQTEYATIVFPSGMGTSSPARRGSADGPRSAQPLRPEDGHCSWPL
T4 sequence (P08637 17-254): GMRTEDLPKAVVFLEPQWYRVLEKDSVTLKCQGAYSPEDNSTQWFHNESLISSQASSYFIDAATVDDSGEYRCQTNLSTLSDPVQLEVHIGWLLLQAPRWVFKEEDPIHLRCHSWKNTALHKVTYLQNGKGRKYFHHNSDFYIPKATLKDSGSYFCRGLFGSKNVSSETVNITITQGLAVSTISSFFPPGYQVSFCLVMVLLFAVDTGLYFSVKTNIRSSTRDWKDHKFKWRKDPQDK
P3Z chimeric PD-1 receptor (human), sequence (chain, as listed by the source mutant limits assumed): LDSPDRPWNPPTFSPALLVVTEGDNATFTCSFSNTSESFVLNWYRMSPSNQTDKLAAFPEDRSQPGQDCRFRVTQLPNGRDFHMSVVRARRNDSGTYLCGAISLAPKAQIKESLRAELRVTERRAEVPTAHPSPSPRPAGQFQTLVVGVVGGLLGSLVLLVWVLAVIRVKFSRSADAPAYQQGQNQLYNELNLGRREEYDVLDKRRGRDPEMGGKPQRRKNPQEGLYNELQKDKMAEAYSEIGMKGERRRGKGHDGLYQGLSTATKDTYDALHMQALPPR
T7 sequence (P08637 17-254 F176V limits assumed): as the sequence (P08637 17-254) above, with F160V counted along it

B1: murine mAb 317 (antibody, V domains shown)
VH: QVQLKESGPGLVAPSKNLSITCTVSGFSLTSYGVHWIRQPPGKGLEWLGVIWAGGSTNYNSALMSRLSISKDNSRSQVFLRMNSLQTDDTAMYYCARAYGNYWYIDVWGAGTTVTVSS
VL: DIVMTQTPKFLLVSAGDRVTITCKASQSVSNDVAWYQQKPGQSPKLLINYAFHRFTGVPDRFTGSGYGTDFIFTISTVQAEDLAVYFCHQAYSSPYTFGGGTKLEMK
notes: Murine hybridoma antibody; also called mu317
B1 was tested, and the “Inhibition of IL-2 secretion, IC50 (HuT78/P3Z + HEK293/PD-L1)” value [1] was 0.083 µ/ml, the “Inhibition of IL-2 secretion, IC50 (HuT78/P3Z + HEK293/PD-L2)” value [2] was 0.02 µg/mL and the “Assay-2 IL-2 release, IC50 (HuT78/P3Z + HEK293/PD-L1)” value (from here on “Assay-2 IL-2 release, IC50”) [3] was 0.11 µg/mL. The “Assay-2 IL-2 release, Max inhibition (HuT78/P3Z + HEK293/PD-L1)” value (“Assay-2 IL-2 release, Max inhibition” for short) [3] was 99.5%, the “Assay-1 IL-2 release, EC50 (HuT78/PD-1 + HEK293/OS8/PD-L1)” value (shortened to “Assay-1 IL-2 release, EC50”) [4] was 0.11 µg/mL and the “Assay-1 IL-2 release, Top line (HuT78/PD-1 + HEK293/OS8/PD-L1)” value (shortened to “Assay-1 IL-2 release, Top line”) [4] was 346 pg/mL. For the same binder, the “IFN-γ secreted, EC50 (NK92MI/PD-1 + SK-MES-1/PD-L1)” value [5] was 0.4 µg/mL, the “IL-2 release, EC50 (HuT78/PD-1 + HEK293/OS8/PD-L1)” value [6] was 0.083 µg/mL and the “IL-2 release, EC50 (HuT78/PD-1 + HEK293/OS8/PD-L2)” value [7] was 0.032 µg/mL. The “Cytotoxicity of NK92MI/PD-1 cells against SK-MES-1/PD-L1, EC50” value [8] was 0.5 µg/mL and the EC50 [9] was 0.11 µg/mL.

B2: murine mAb 326 (antibody, V domains shown)
VH: QIQLVQSGPELKKPGETVKISCKASGYTFTNYGMNWVKQAPGKGLKWMGWINNNNGEPTYAEEFKGRFAFSLETSASTAYLQINNLKNEDTATYFCARDVMDYWGQGTSVTVSS
VL: DIVLTQSPASLAVSLGQRATISCRASESVDNYGYSFMHWYQQKPGQPPQLLIYRASNLESGIPARFSGSGSRTGFTLTINPVEADDVATYYCQQSKEYPTFGGGTKLEVK
notes: Murine hybridoma antibody; also called mu326
For B2, the “Inhibition of IL-2 secretion, IC50 (HuT78/P3Z + HEK293/PD-L1)” value [1] was 0.039 µ/ml, the “Inhibition of IL-2 secretion, IC50 (HuT78/P3Z + HEK293/PD-L2)” value [2] was 0.018 µg/mL and the EC50 [10] was 0.126 µg/mL. The EC50 [11] was 0.126 µg/mL, the “Top MFI” value [11] was 195 MFI and the “IFN-γ secreted, EC50 (NK92MI/PD-1 + SK-MES-1/PD-L1)” value [5] was 0.2 µg/mL. The “IL-2 release, EC50 (HuT78/PD-1 + HEK293/OS8/PD-L1)” value [6] was 0.053 µg/mL, the “IL-2 release, EC50 (HuT78/PD-1 + HEK293/OS8/PD-L2)” value [7] was 0.038 µg/mL and the “Cytotoxicity of NK92MI/PD-1 cells against SK-MES-1/PD-L1, EC50” value [8] was 0.37 µg/mL. It also gave a Kd (PD-1-EC/Fc) of 0.324 nM, a koff (PD-1-EC/Fc) of 7.79e-05 s⁻¹ and a kon (PD-1-EC/Fc) of 240000 M⁻¹ s⁻¹. For the same binder, the “Assay-2 IL-2 release, IC50” value [12] was 0.14 µg/mL, the “Assay-2 IL-2 release, Max inhibition” value [12] was 96.9% and the “Assay-1 IL-2 release, EC50” value [13] was 0.038 µg/mL. For the same binder, the “Assay-1 IL-2 release, Top line” value [13] was 1150 pg/mL.

B3: ch317 (antibody, human IgG2, V domains shown, not shown: a dimerising Fc or GST)
VH: B1 VH
VL: DIVMTQTPKFLLVSAGDRVTITCKASQSVSNDVAWYQQKPGQSPKLLINYAFHRFTGVPDRFTGSGYGTDFIFTISTVQAEDLAVYFCHQAYSSPYTFGGGTKLEMKR
notes: domain: Ig kappa C-region; Murine VH and Vκ of mu317 on human IgG2 / kappa
In the case of B3, the “Assay-2 IL-2 release, IC50” value [3] is reported as 0.1 µg/mL, the “Assay-2 IL-2 release, Max inhibition” value [3] is reported as 99% and the “Assay-1 IL-2 release, EC50” value [4] is reported as 0.08 µg/mL. The “Assay-1 IL-2 release, Top line” value [4] was 294 pg/mL and the EC50 [14] was 0.36 µg/mL.

B4: hu317-1 (antibody, IgG2, V domains shown, not shown: a dimerising Fc or GST)
VH: QVQLQESGPGLVKPSETLSLTCTVSGFSLTSYGVHWIRQPPGKGLEWLGVIWAGGSTNYNPSLKSRLTISKDNSKSQVSLKMSSVTAADTAVYYCARAYGNYWYIDVWGQGTTVTVSS
VL: DIVMTQSPDSLAVSLGERATINCKASQSVSNDVAWYQQKPGQPPKLLINYAFHRFTGVPDRFSGSGYGTDFTLTISSLQAEDVAVYYCHQAYSSPYTFGGGTKLEIKR
notes: domain: Ig kappa C-region; Initial humanized version, IgG2 / kappa
For B4, the “Assay-2 IL-2 release, IC50” value [3] was 0.11 µg/mL, the “Assay-2 IL-2 release, Max inhibition” value [3] was 99.8% and the “Assay-1 IL-2 release, EC50” value [4] was 0.09 µg/mL. The “Assay-1 IL-2 release, Top line” value [4] was 386 pg/mL and the EC50 [14] was 0.46 µg/mL.

B5: hu317-4B6/IgG4mt6 (antibody)
heavy: QVQLQESGPGLVKPSETLSLTCTVSGFSLTSYGVHWIRQPPGKGLEWIGVIYADGSTNYNPSLKSRVTISKDTSKNQVSLKLSSVTAADTAVYYCARAYGNYWYIDVWGQGTTVTVSSASTKGPSVFPLAPCSRSTSESTAALGCLVKDYFPEPVTVSWNSGALTSGVHTFPAVLQSSGLYSLSSVVTVPSSSLGTKTYTCNVDHKPSNTKVDKRVESKYGPPCPPCPAPPVAGGPSVFLFPPKPKDTLMISRTPEVTCVVVAVSQEDPEVQFNWYVDGVEVHNAKTKPREEQFNSTYRVVSVLTVLHQDWLNGKEYKCKVSNKGLPSSIEKTISKAKGQPREPQVYTLPPSQEEMTKNQVSLTCLVKGFYPSDIAVEWESNGQPENNYKTTPPVLDSDGSFFLYSRLTVDKSRWQEGNVFSCSVMHEALHNHYTQKSLSLSLGK
VL: DIVMTQSPDSLAVSLGERATINCKSSESVSNDVAWYQQKPGQPPKLLINYAFHRFTGVPDRFSGSGYGTDFTLTISSLQAEDVAVYYCHQAYSSPYTFGQGTKLEIK
notes: Light chain constant region not restated for this format; copies: 2 + 2
B5 showed an MFI (human FcγRI [15]) of 1 MFI.

B6: hu317-1/IgG4mt6 (antibody)
heavy: B5 heavy with I48L, Y52W, D54G, V67L, T73N, N76S, L82M
VL: B5 VL with S25A, E27Q, Q100G
notes: as for B5
B6 was tested, and the MFI (human FcγRIIIA (F158) [16]) was 0.9 MFI, the MFI (human FcγRIIA (H131)) was 1 MFI and the MFI (human FcγRIIA (R131)) was 0.8 MFI.

B7: hu317-4B6/IgG4mt10 (antibody)
heavy: B5 heavy with L307V, R407K
VL: B5 VL
notes: as for B5
B7: no binding (human FcγRIIIA (F158) [17]); no binding (human FcγRIIIA (V158)); no binding (human FcγRI [18]).

B8: hu326-3B1 (antibody, V domains shown)
VH: QVQLVQSGSELKKPGASVKVSCKASGYTFTNYGMNWVRQAPGQGLKWMGWINNNNGEPTYAQDFRGRFVFSLDTSASTAYLQISSLKTEDTAVYYCARDVMDYWGQGTLVTVSS
VL: B2 VL with L15P, S22T, Q49K, I62V, G74D, D85N, V87T, T89N, L107V, V109I
notes: Humanized mAb
In the case of B8, the EC50 [19] is reported as 0.165 µg/mL.

B9: hu326-4A3/IgG4mt10 (antibody)
heavy: QVQLVQSGSELKKPGASVKVSCKASGYTFTNYGMNWVRQAPGQGLKWMGWINNNNAEPTYAQDFRGRFVFSLDTSASTAYLQISSLKTEDTAVYYCARDVMDYWGQGTLVTVSSASTKGPSVFPLAPCSRSTSESTAALGCLVKDYFPEPVTVSWNSGALTSGVHTFPAVLQSSGLYSLSSVVTVPSSSLGTKTYTCNVDHKPSNTKVDKRVESKYGPPCPPCPAPPVAGGPSVFLFPPKPKDTLMISRTPEVTCVVVAVSQEDPEVQFNWYVDGVEVHNAKTKPREEQFNSTYRVVSVLTVVHQDWLNGKEYKCKVSNKGLPSSIEKTISKAKGQPREPQVYTLPPSQEEMTKNQVSLTCLVKGFYPSDIAVEWESNGQPENNYKTTPPVLDSDGSFFLYSKLTVDKSRWQEGNVFSCSVMHEALHNHYTQKSLSLSLGK
VL: DIVLTQSPASLAVSPGQRATITCRASESVDNYGYSFMHWYQQKPGQPPKLLIYRASNLESGVPARFSGSGSGTDFTLTINPVEAEDTANYYCQQSKEYPTFGGGTKVEIK
notes: as for B5
B9: no binding (human FcγRIIIA (F158) [17]); no binding (human FcγRIIIA (V158)); no binding (human FcγRI [18]).
